Data as given in publication PMC6737233, “A novel epitope-presenting thermostable scaffold for the development of highly specific insulin-like growth factor-1/2 antibodies” (The Journal of Biological Chemistry, 2019).

Legend:
[1] = biological target: T1, human recombinant IGF-1 (insulin-like growth factor 1) (Homo sapiens (Human)., UniProt P05019); assay: SPR; Biacore T200, 25 °C, HBS-EP (10 mM HEPES pH 7.4, 150 mM NaCl, 1 mM EDTA, 0.05% Tween 20); mAb from clone culture supernatant captured by immobilised polyclonal rabbit anti-mouse IgG on CM5; analytes injected at 90, 30, 10, 3.3, 1.1, 0 nM, in triplicate; dissociation 5, 30 or 120 min (IGF-1 on anti–IGF-1: 120 min); 1:1 Langmuir fit; details: one partner purified
T1 construct: insulin-like growth factor 1, human, mature 70-amino acid polypeptide hormone (7.7 kDa; 7.6-kDa recombinant analyte); loop positions 74–90 are counted on UniProtKB P05019; Two suppliers are named (PeproTech for SPR, Roche Penzberg for ECLIA); They are kept as one molecule because both are recombinant mature human IGF-1; also called mature human IGF-1; source: bought: PeproTech (100-11) (SPR); …
T1 sequence (P05019 49-118): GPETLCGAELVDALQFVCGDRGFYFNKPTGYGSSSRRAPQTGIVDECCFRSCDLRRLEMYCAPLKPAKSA

TtSlyD-IGF-1(74–90) = biological target: T2, TtSlyD-IGF-1(74–90) (Thermus thermophilus (strain ATCC …)); assay: as above; details: one partner purified
T2 construct: Thermus thermophilus SlyD, FKBP domain upstream of the insertion site (Nt-SlyD-FKBP); the printed cell begins with the MRGS tag, which replaces Met1; single glycine linker; human IGF-1 loop, positions 74–90 of UniProtKB P05019, grafted in place of the IF domain (TtSlyD residues 67–121); Thermus thermophilus SlyD, FKBP domain downstream of the insertion site (Ct-SlyD-FKBP), from Ala122; The SPR …
T2 chain: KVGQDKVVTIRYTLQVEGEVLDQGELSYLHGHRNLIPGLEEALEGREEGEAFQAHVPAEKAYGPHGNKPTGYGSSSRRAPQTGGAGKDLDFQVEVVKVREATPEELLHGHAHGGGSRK

[2] = biological target: T1, human recombinant IGF-1 (insulin-like …); assay: as above; details: one partner purified; remark: listed apart in the source
[3] = biological target: T3, human recombinant IGF-2 (insulin-like growth factor 2) (Homo sapiens (Human)., UniProt P01344); assay: as above; details: one partner purified
T3 construct: insulin-like growth factor 2, human, mature 67-amino acid peptide (7.5 kDa; 7.2-kDa recombinant analyte); loop positions 53–65 are counted on UniProtKB P01344; also called mature IGF-2; source: bought: PeproTech (100-12)
T3 sequence (P01344 25-91): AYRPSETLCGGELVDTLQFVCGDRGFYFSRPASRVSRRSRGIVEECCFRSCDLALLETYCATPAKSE

[4] = biological target: T4, IGF-1 linear sequence stretch Lys75 to Arg84 (on 15-mer array peptides) (Homo sapiens (Human).); assay: peptide or protein array; Intavis CelluSpots slides with 15-mer peptides (off-set 1) of human IGF-1, and an alanine scan; 1 μg/ml antibody in TBST, ambient temperature, 2 h; HRP secondary antibody, chemiluminescence
T4 construct: human IGF-1, stretch Lys75–Arg84 (numbers on UniProtKB P05019), mapped with 15-mer peptides off-set by 1 amino acid; The peptides on the array were 15 amino acids long; source: synthetic peptide, spotted on Intavis CelluSpots glass slides
T4 chain: KPTGYGSSSR

B1: mAb anti–IGF-1(74–90) (antibody, V domains shown)
VH: QVQLQQSGAELVRPGSSVKISCKASGYAFSNLWMNWVKQRPGQGLEWIGQIYPGDGDTNYYGDFKGKATLTADSSSSTAYMQLSRLTSEDSAVYFCARIGYYGMDYWGQGTSVTVSS
VL: DVVLTQTPLSLPVNIGDEASISCKSTKSLLSSDGLTYLDWYLQKPGQSPQVLIYLVSNRFSGVPDRFSGSGSGTDFTLKISRVEAEDLGVYYCFQSNYLPTFGAGTKLELK
notes: Murine monoclonal antibody raised with TtSlyD-IGF-1(74–90); In the ECLIA it stood as a biotinylated or ruthenylated conjugate (lysine ε-amino groups); also called mAb IGF-1(74–90); anti–IGF-1 antibody; source: mouse hybridoma; clone culture supernatant captured on the sensor (SPR); purified from the cell culture supernatant (immunoconjugates for ECLIA)
- Kd [1]: 5.5 pM
- koff [1]: 1.7e-05 s⁻¹
- kon [1]: 3e+06 M⁻¹ s⁻¹
- Kd (TtSlyD-IGF-1(74–90)): 31 pM
- koff (TtSlyD-IGF-1(74–90)): 2.8e-05 s⁻¹
- kon (TtSlyD-IGF-1(74–90)): 920000 M⁻¹ s⁻¹
- t1/2 diss [2]: 11.3 h
- binding result [3]: no binding (tested: 90 nM)
- binding result [4]: binds
